Experiments:
[1] = target: phosphorylated SNAP-ADAP fusion protein (ADAP amino acids 570-690) (human) (UniProt O15117); experiment: MST; SH2 proteins (only partly purified) serially diluted in 1x PBS with 1.75% (v/v) E. coli extract; fluorescent ADAP at 12 nM; 5 min at RT; Monolith NT.115
[2] = target: site-specifically biotinylated Fyn SH2 domain (UniProt P06241); experiment: supernatant depletion assay (pull-down titration); biotinylated SH2 domains on streptavidin-coated DynaBeads, washed once and serially diluted in 1x PBS; ADAP at 8 nM (PBS with 0.1% E. coli extract), 10 min at RT; unbound ADAP in the supernatant read by in-gel fluorescence; Kd estimated from the plot
Chain of site-specifically biotinylated Fyn SH2 domain (P06241 149-246): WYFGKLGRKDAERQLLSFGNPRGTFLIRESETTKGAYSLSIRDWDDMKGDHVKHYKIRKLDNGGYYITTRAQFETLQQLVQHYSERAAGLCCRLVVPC

Chain of phosphorylated SNAP-ADAP fusion protein (ADAP amino acids 570-690) (human) (O15117 570-690): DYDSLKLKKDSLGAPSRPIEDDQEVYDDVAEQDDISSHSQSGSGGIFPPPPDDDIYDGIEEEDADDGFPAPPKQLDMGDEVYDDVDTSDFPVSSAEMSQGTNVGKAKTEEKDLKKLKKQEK

Row | Kd [1] | Kd [2] | Substance
1 | 1000 nM | – | Fyn SH2 domain without biotin (for MST) (from UniProt P06241 149-246) (domain or fragment)
2 | 1000 nM | – | Src SH2 domain without biotin (for MST) (from UniProt P12931 151-248) (domain or fragment)
3 | – | 300 nM | phosphorylated SNAP-ADAP fusion protein (ADAP amino acids 570-690) (from UniProt O15117 570-690) (domain or fragment)

— paper PMC3858276
